The record followed here is patent US20250145716A1 (RAKUTEN MEDICAL, published 2025).

In experiment [1] the target is T1, 6xHis-tagged huPD-L1 (human, UniProt Q9NZQ7 19-238).
T1 construct: also called human PD-L1 (RD Systems 9049-B7); extracellular domain of human PD-L1 fused to a His tag; not shown: 6xHis tag
Description: ELISA, plate-coated 6xHis huPD-L1, OD 450 nm. The protocol:
(§1) Hybridoma supernatants were tested for binding to huPD-L1, cyPD-L1, and muPD-L1 by ELISA. Briefly, 30 μL 6xHis-tagged huPD-L1, cyPD-L1, or muPD-L1 (1 μg/mL in PBS) were immobilized in wells of a 96-well assay plate overnight at 4° C. After washing and blocking steps, 30 μL of antibody supernatant were added to the plate and incubated at room temperature for 1 hr. Bound human antibody was detected using horseradish peroxidase (HRP)-conjugated goat anti-human Fc (Invitrogen Cat. No. 109-035-097; diluted 1:5000) or goat anti-mouse Fc HRP (Invitrogen Cat. No. 115-035-071) as a control. Bound antibody was detected with 1-Step Ultra™ TMB-ELISA Substrate (ThermoFisher Scientific Cat. No. 34029). When the reaction was complete the reaction was stopped, and the plate was read at 450 nm.
Anti-PD-L1 antibodies, described in Example 1A and manufactured substantially as described in Example 1B, were tested for to huPD-L1 and cyPD-L1 by ELISA substantially as described in Example 1A, using 12 dilutions of antibody ranging from 1 ng/ml to 3 mg/mL.
A general note: In an ELISA, binding on a coated surface is turned into a signal by an enzyme label.

Experiment [2] has as its target T2, PD-L1-His (Acro Cat PDL-H5229) (human, UniProt Q9NZQ7 19-238).
T2 construct: also called human PD-L1 (SPR analyte); not shown: His tag
Kind of experiment: SPR (Biacore 4000), antibody captured on anti-human CM4 chip, PD-L1-His analyte, 25° C. As to the method:
(§2) The binding affinities of the generated antibodies to human PD-L1 were determined by surface plasmon resonance. […] PD-L1-His (Acro Cat PDL-H5229) was tested for binding in a 3-fold titration series up to 100 nM. Data were collected in HBS-P (pH 7.4) at 37° C. and 25° C.

Experiment [3] addresses T3, human B7-2/CD86 (RD Systems 9090-B2) (human, UniProt P42081 24-247, limits assumed).
T3 sequence (looked up): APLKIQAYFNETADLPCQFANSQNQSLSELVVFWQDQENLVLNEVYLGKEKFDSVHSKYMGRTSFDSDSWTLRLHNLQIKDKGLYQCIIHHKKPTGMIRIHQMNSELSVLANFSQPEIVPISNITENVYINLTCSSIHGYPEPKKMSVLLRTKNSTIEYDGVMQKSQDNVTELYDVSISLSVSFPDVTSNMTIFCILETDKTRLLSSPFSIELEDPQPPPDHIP
Kind of experiment: ELISA, plate-coated human B7-2/CD86 (1 µg/mL), OD 450 nm, B7 ligand specificity panel. The protocol:
as §1
(§3) Briefly, wells of a 96-well plate (Corning 3690) were incubated with 30 μL human PD-L1 (RD Systems 9049-B7), human PD-L2 (RD Systems 9075-PL), human B7-1/CD80 (RD Systems 9050-B1), human B7-2/CD86 (RD Systems 9090-B2), human B7-H2 (RD Systems 8206-B7), or human B7-H3 (RD Systems 1949-B3), at a concentration of 1 μg/mL in PBS, overnight at 4C, to coat the wells with ligand. After washing and blocking steps, 30 μL of antibody at 8 concentrations ranging from 1 ng/mL to 3 mg/mL were added to the plate and incubated at room temperature for 1 hr. Bound human antibody was detected as described above.

For experiment [4], the target named is T4, human PD-L1 expressed on cells (human, UniProt Q9NZQ7 19-290).
T4 construct: whole, on cells; One entry covers all human PD-L1-bearing cells; also called huPD-L1 on CHO cells (CHO-hPD-L1); PD-L1 on A431 cells
Kind of experiment: flow cytometry, PD-L1-expressing CHO cells, MFI (FITC). The protocol:
Wild-type (wt) Chinese hamster ovary (CHO) cells (ATCC) and CHO cells engineered to express huPD-L1 (BPS Bioscience) were seeded at 200,000 cells in 50 μL FACS buffer (PBS containing 1% FBS and 5 mM EDTA) per well of a 96-well plate. Cell viability was assessed by adding 50 μL 2×Zombie Violet (BioLegend). Dead cell controls were also prepared and 2×Zombie violet was added. After incubating 20-30 minutes at room temperature, protected from light, 150 μL FACS buffer were added to each well. The plates were centrifuged, and the supernatant was aspirated. […] The plates were incubated 30 minutes on ice, protected from light. 150 μL FACS buffer were then added to each well and the plate was centrifuged. The supernatant was removed and the cells were washed three times in 200 μL FACS buffer. […] The cells were incubated 30 minutes on ice, protected from light. 150 μL FACS buffer were then added to each well and the plate was centrifuged. Supernatant was removed and the cells were washed twice with 200 μL FACS buffer. The cells were then resuspended in FACS buffer and analyzed by CytoFLEX using the appropriate channels. After gating for whole, single, live cells, the MFI in the APC channel (or FITC channel for human control samples) was normalized to the signal from hybridoma media alone (or isotype control for human control). MFI fold over media alone was determined for each clone supernatant tested.
(In flow cytometry, cells or beads pass a laser one at a time.)

Experiment [5] has as its target T5, human B7-1/CD80 (RD Systems 9050-B1) (human, UniProt P33681 35-242).
T5 sequence (looked up): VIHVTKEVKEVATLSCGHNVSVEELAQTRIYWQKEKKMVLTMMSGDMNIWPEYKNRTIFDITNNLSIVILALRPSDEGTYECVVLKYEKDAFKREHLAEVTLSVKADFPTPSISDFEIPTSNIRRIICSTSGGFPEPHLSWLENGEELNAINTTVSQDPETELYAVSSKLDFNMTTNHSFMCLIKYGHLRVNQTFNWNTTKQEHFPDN
Kind of experiment: ELISA, plate-coated human B7-1/CD80 (1 µg/mL), OD 450 nm, B7 ligand specificity panel. As to the method: as §1, §3

Experiment [6] deals with T2, PD-L1-His (Acro Cat PDL-H5229). Description: SPR (Biacore 4000), antibody captured on anti-human CM4 chip, PD-L1-His analyte, 37° C. The protocol:
as §2
For orientation: SPR reads the build-up and loss of mass on a sensor chip optically.

Experiment [7] addresses T1, 6xHis-tagged huPD-L1. Kind of experiment: ELISA, plate-coated human PD-L1 (1 µg/mL), OD 450 nm, B7 ligand specificity panel. As to the method:
as §1, §3

For experiment [8], the target named is T4, human PD-L1 expressed on cells. Kind of experiment: cell-based or functional assay.

T2 sequence (Q9NZQ7 19-238 limits assumed): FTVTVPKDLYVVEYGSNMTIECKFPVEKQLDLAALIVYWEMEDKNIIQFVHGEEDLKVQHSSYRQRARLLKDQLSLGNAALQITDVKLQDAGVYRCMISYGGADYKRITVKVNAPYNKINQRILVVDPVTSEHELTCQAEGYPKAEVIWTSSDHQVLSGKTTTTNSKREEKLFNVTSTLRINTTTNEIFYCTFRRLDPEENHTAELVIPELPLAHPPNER
T1 sequence (Q9NZQ7 19-238): as the sequence (Q9NZQ7 19-238 limits assumed) above
T4 sequence (Q9NZQ7 19-290): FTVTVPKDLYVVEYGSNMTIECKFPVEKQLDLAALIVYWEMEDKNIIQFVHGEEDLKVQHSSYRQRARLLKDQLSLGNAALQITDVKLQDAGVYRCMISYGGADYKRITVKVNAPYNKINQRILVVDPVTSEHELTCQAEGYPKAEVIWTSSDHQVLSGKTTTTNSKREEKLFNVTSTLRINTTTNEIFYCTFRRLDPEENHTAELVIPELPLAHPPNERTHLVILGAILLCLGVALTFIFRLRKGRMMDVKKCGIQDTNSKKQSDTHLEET

B1: 1P9 (antibody, V domains shown)
VH: EVQLVESGGGLVQPGGSLRLSCAASGFTFSTYWMSWVRQAPGKGLEWVANIKQDGGERYYVDSVKGRFTISRDNAKSSLYLQMNSLRAEDTALYYCARLRLYSDYEDYWGQGTLVTVSS
VL: DIQMTQSPSSVSASVGDRVTITCRASQGISSWLAWYQQKPGKAPKLLIYSVSSLQSGVPSRFSGSGSGTDFTLTISSLQPEDSATYYCQQANSLPPTFGGGTKVEIK
notes: Recombinant full-length human antibody expressed in CHO K1 GS KO cells, with wild-type human Fc; also called anti-PD-L1 antibody 1P9; Unconj; 1P9
Usually EC50 stands for the concentration at which the effect is half-maximal. Higher therefore signals weaker potency. By Kd is commonly meant the equilibrium constant for the complex coming apart. High values mean a looser complex, low ones a tighter complex. In general, koff refers to a measure of how fast the partners let go of each other. Read a high koff as a short-lived complex. By kon is commonly meant the rate constant with which the complex forms. Higher therefore signals faster complex formation. For the molecule B1, the EC50 is 0.0359 µg/mL in the experiment with 6xHis-tagged huPD-L1 [1]; 1.14 µg/mL in experiment [3]; 0.0199 µg/mL in experiment [4]; 5.31 µg/mL in experiment [5]; 0.0953 µg/mL in the experiment with 6xHis-tagged huPD-L1 [7]. Besides, the figures for the Kd in experiment [2] and in experiment [6] were 0.27 nM and 1.1 nM, respectively. The figures for the koff in experiment [2] and in experiment [6] were 5.1e-05 s⁻¹ and 0.00037 s⁻¹, respectively. Further, the kon in experiment [2] is 190000 M⁻¹ s⁻¹; in experiment [6], 330000 M⁻¹ s⁻¹. Further, the “EC50 of luminescence (RLU), PD-1:PD-L1 Blockade Bioassay (PD-L1 aAPC/CHO-K1 cells with PD-1 Effector Jurkat NFAT-luciferase cells)” value in experiment [8] was 0.067 µg/mL.
